Experiment [1] concerns the target Schizosaccharomyces pombe ribosome (S. pombe). The experiment can be described thus: co-sedimentation; NatA constant at 0.5 μM, ribosome 0.1–11 μM, 30% sucrose cushion; anti-His western blot of Naa15, proportion in the pellet quantified; fit assumes 1:1. (In western blotting, separated proteins are transferred to a membrane and probed.)
The target is the same in experiment [2]. The experiment can be described thus: co-sedimentation; ribosome 1 μM and NatA 1.2 μM layered on Buffer G with 30% sucrose, ultracentrifuged; pellet and supernatant on SDS-PAGE.

“And” between values parts separate entries of the source, which are not always exact repeats. Identical values can stand only once. A value given as a limit tells only on which side of the number the result lay.

Regarding “NatA (wild type; Naa15-Naa10 complex of Schizosaccharomyces pombe)”, the Kd in experiment [1] came out at 1100 nM. Besides, the stoichiometry N in experiment [2] was 1.13 and 1.28. “NatA K9E (Naa15 K27E, K28E, K31E, K605E, K606E, K609E, K610E, K612E, K613E with Naa10) (complex)” registered a percent pulldown (highest reached at the ribosome concentrations used) in experiment [1] of less than 30%.

One may read the Kd as a measure of binding affinity in units of concentration. A lower Kd goes with tighter binding. As usually defined, the stoichiometry N is the number of molecules, sites or subunits per partner or assembly.

The values above are taken from PMC5634638.
